Laboratory results as given in the supplement of paper PMC7877785.
± gives the uncertainty stated by the source.

Assay: self-splicing fitness, log relative to wild type (ln ratio); higher = more splicing; Tetrahymena group I intron in knt gene, E. coli kanamycin selection, DiMSum; sequences stand for … in CUCUCU…GGAGGGAAAAGUUAUCAGGCAUGCACCUGGUAGCUAGUCUUUAAACCAAUAGAUUGCAUCGGUUUAAAAGGCAAGACCGUCAAAUUGCGGGAAAGGGGUCAACAGCCGUUCAGUACCAAGUCUCAGGGGAAACUUUGAGAUGGCCUUGCAAAGGGUAUGGUAAUAAGCUGACGGACAUGGUCCUAACCACGCAGCCAAGUCCUAAGUCAACAGAUCUUCUGUUGAUAUGGAUGCAGUUCACAGACUAAAUGUCGGUCGGGGAAGAUGUAUUCUUCUCAUAAGAUAUAGUCGGACCUCUCCUUAAUGGGAGCUAGCGGAUGAAGUGAUGCAACACUGGAGCCGCUGGGAACUAAUUUGUAUGCGAAAGUAUAUUGAUUAGUUUUGGAGUACUCGUGGUCG
Outline: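 Pooled colonies went to amplicon sequencing on an Illumina HiSeq 2500 after six replicate transformations. The plates were LB agar with 100 μg/mL carbenicillin, 50 μM IPTG and 0.2% rhamnose, with or without 25 μg/mL kanamycin, incubated overnight at 37°C or 30°C. The E. coli BL21(DE3) library had all eight P1ex-region intron nucleotides randomised, the intron placed in the knt kanamycin-resistance gene on pET-22b(+). DiMSum fitness is the error-weighted combination of replicate fold changes, kanamycin against none, normalised to wild type.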

Row | Sequence | self-splicing fitness (ln) (30 °C) | self-splicing fitness (ln) (37 °C)
1 | CAUAAGCAAUAUUACGUGGU | -3.76 ± 0.17 | -3.31 ± 0.2
2 | CAUAAGCAAUAUUACGUGUU | -3.05 ± 0.13 | -2.62 ± 0.13
3 | CAUCAGCAAUAUUACGAGUA | -2.12 ± 0.12 | -1.47 ± 0.095
4 | CAUCAGCAAUAUUACGAUCU | -0.778 ± 0.06 | -0.771 ± 0.087
5 | CAUCAGCAAUAUUACGCACG | -0.443 ± 0.086 | 0.189 ± 0.11
6 | CAUCAGCAAUAUUACGCAUU | -1.36 ± 0.079 | -0.544 ± 0.1
7 | CAUCAGCAAUAUUACGGCGG | -0.364 ± 0.071 | 0.3 ± 0.12
8 | CAUCAGCAAUAUUACGGGGU | -4.39 ± 0.25 | -2.11 ± 0.25
9 | CAUCAGCAAUAUUACGGGUA | -0.63 ± 0.07 | -0.0764 ± 0.079
10 | CAUCAGCAAUAUUACGGUAA | -2.64 ± 0.14 | -1.09 ± 0.086
11 | CAUCAGCAAUAUUACGGUCA | -1.11 ± 0.076 | -0.81 ± 0.098
12 | CAUCAGCAAUAUUACGGUGA | -1.63 ± 0.12 | -1.4 ± 0.12
13 | CAUCAGCAAUAUUACGGUGG | -0.952 ± 0.045 | -0.393 ± 0.068
14 | CAUCAGCAAUAUUACGGUUG | -2.29 ± 0.072 | -0.804 ± 0.079
15 | CAUCAGCAAUAUUACGUGGU | -3.2 ± 0.096 | -2.07 ± 0.12
16 | CAUCAGCAAUAUUACGUUCA | -2.66 ± 0.16 | -1.77 ± 0.15
17 | CAUGAGCAAUAUUACGACAU | -3.739 ± 0.028 | -2.9 ± 0.043
18 | CAUGAGCAAUAUUACGACUA | -2.06 ± 0.27 | 
19 | CAUGAGCAAUAUUACGAGGA | -2.72 ± 0.23 | -2.62 ± 0.26
20 | CAUGAGCAAUAUUACGAGGC | -2.4 ± 0.2 | -2.34 ± 0.26

Row | Sequence | self-splicing fitness (ln) (30 °C) | self-splicing fitness (ln) (37 °C)
21 | CAUGAGCAAUAUUACGCAAU | -3.1 ± 0.38 | 
22 | CAUGAGCAAUAUUACGCGUA | -2.65 ± 0.24 | -2.45 ± 0.25
23 | CAUGAGCAAUAUUACGCUAC |  | -2.29 ± 0.49
24 | CAUGAGCAAUAUUACGCUCG | -2.72 ± 0.17 | -2.68 ± 0.4
25 | CAUGAGCAAUAUUACGCUGG | -3.36 ± 0.17 | -2.58 ± 0.18
26 | CAUGAGCAAUAUUACGCUUG | -2.74 ± 0.14 | -2.97 ± 0.21
27 | CAUGAGCAAUAUUACGGAAC | -3.01 ± 0.33 | -2.65 ± 0.35
28 | CAUGAGCAAUAUUACGGAAU | -4.62 ± 0.36 | -2.58 ± 0.28
29 | CAUGAGCAAUAUUACGGACA | -3.32 ± 0.48 | -0.812 ± 0.25
30 | CAUGAGCAAUAUUACGGCCA |  | -1.36 ± 0.41
31 | CAUGAGCAAUAUUACGGCCU | -2.67 ± 0.19 | -2.19 ± 0.25
32 | CAUGAGCAAUAUUACGUCUG | -1.41 ± 0.073 | -1.06 ± 0.073
33 | CAUGAGCAAUAUUACGUGGG | -4.29 ± 0.27 | -3.23 ± 0.32
34 | CAUGAGCAAUAUUACGUUAU | -3.12 ± 0.14 | -2.54 ± 0.24
35 | CAUUAGCAAUAUUACGAACU | -2.29 ± 0.31 | -2.63 ± 0.36
36 | CAUUAGCAAUAUUACGAAUU | -2.07 ± 0.22 | -1.2 ± 0.17
37 | CAUUAGCAAUAUUACGACGA | -2.25 ± 0.28 | -1.6 ± 0.2
38 | CAUUAGCAAUAUUACGAGCA | -3.42 ± 0.23 | -2.28 ± 0.14
39 | CAUUAGCAAUAUUACGAGCU | -2.57 ± 0.33 | -2.7 ± 0.44
